Experimental data published in patent publication US9097721B2, “Compositions comprising engineered phosphothreonine affinity reagents, methods of making, and methods of use” (The Board of Trustees of the University of Illinois, priority 2012, dated 2015).
Where “and” joins values, the source holds several entries; their conditions need not be identical. Equal entries are not always repeated. Entries after “also recorded” stand apart in the source; their conditions may differ.

What was measured:
[1] = Fluorescence-based thermal shift (FTS) assay, melting temperature; assay type: physicochemical; settings: for thermal stability compared with the starting D2 domain: isolated after selection with library heated to 50° C.; for Tm (° C.): mid-point of melting curve
Experimental: (§1) The FTS assay was performed on a MxPro-Mx3005P instrument (Stratagene) following the protocol described by Giuliani et al (Giuliani et al. (2008) Biochemistry 47, 13974-84). It is a real-time assay using the SYBR® Green experiment setting with dissociation curve. The default FRROX filter set was used with an excitation wavelength of 492 nm and emission wavelength of 610 nm. FHA1 domains diluted with PBS to 2× final concentration (i.e. 2 μM and 8 μM) were mixed with 10×SYPRO® Orange protein gel stain (Invitrogen; 5000× concentration in DMSO) to give a final dye concentration of 10×. Then, to the protein wells only, 10 μL of the dye+protein mixture was added along with 10 μL of 1×PBS buffer. In other wells, 10 μL of either the pT peptide or its non-phosphorylated form (diluted to 2× final concentration with PBS, i.e. 100 μM and 500 μM) was added to 10 μL of dye+protein mixture. The final reaction volume was 20 μL with final concentrations of 1 μM or 4 μM of FHA1 domains, 50 μM or 250 μM of pT and non-phosphorylated peptides and 5× final concentration of the SYPRO® Orange. The assay was performed in duplicate in 96 well white PCR plates (BIO-Rad) covered with optically clear Microseal® ‘B’ Film (Bio-Rad) and heated from 25° C. to 95° C. and the melting curve was obtained with fluorescence (R) values plotted on the Y-axis and increasing temperature (° C.) on the X-axis. The mid-point of the curve gives the melting temperature (Tm), which shifts to a higher temperature in the presence of the pT peptide.
To evaluate the thermal stability of the D2 variant, phage particles displaying the D2 variant were heated at various temperatures (30° C., 37° C., 50° C., 60° C., 70° C., 80° C., and 95° C.) prior to incubation with the cognate pT peptide (Rad9-pT) and the non-phosphorylated form of the same peptide (Rad9-T). […] (FIG. 8). The D2 variant (purified six-his tagged protein) was mixed with SYPRO orange dye with or without the Rad9-pT-containing peptide and heated from 25° C. to 95° C. in a real-time PCR experiment known as the Fluorescence-based thermal shift (FTS) assay^36. In this assay, initially, the fluorescence of SYPRO orange dye is quenched in the aqueous environment of a folded protein, but as the protein starts to unfold upon heating, the dye interacts with the hydrophobic core of the protein and its fluorescence increases. Therefore, an increase in fluorescence of the dye is directly proportional to protein unfolding, until a temperature (referred to as Tm here) is reached at which the dye fluorescence decreases due to aggregation and precipitation of the protein. The melting temperature (Tm) of the D2 variant was determined by fluorescence-based thermal shift (FTS) assay to be approximately 5° C. lower than the Tm of the WT FHA1 domain. To improve the thermal stability of the D2 variant, affinity selection was carried out by heating the phage library displaying D2 variants at 50° C. prior to incubation with the pT peptide ligand to favor the isolation of variants that remained folded and functional above 50° C.
(§2) The Tm values of FHA1 variants were determined by FTS assay (Giuliani et al. (2008) Biochemistry 47, 13974-84). A representative Tm curve for the G2 variant at 1 μM concentration is shown (solid squares), alone and in the presence of the pT peptide (FIG. 11). […] The Tm values of the thermally stable variants (along with WT and D2 variant) at 1 μM and 4 μM concentration, along with the Tm shift in the presence of two different concentrations (50 μM and 250 μM) of the pT peptide, are listed in Table S3.
The Tm (temperature at which 50% of the protein is unfolded) of the protein domain variants was determined by a fluorescence-based thermal shift assay (Giuliani et al. (2008) Biochemistry 47, 13974-84). The proteins were mixed with SYPRO orange dye, and heated from 25° C. to 95° C. on a real-time thermocycler. […]

[2] = tested on: non-phosphorylated form of the same peptide; experiment: FTS assay, Tm shift in the presence of the non-phosphorylated peptide; assay type: binding, yeast
Experimental: as §1, with “The final reaction volume was 20 μL with final concentrations of 1 μM or 4 μM of FHA1 domains, 50 μM or 250 μM of pT and non-phosphorylated peptides and 5× final concentration of the SYPRO® Orange.” left out, “The mid-point of the curve gives the melting temperature (Tm), which shifts to a higher temperature in the presence of the pT peptide.” left out
The Tm values of FHA1 variants were determined by FTS assay (Giuliani et al. (2008) Biochemistry 47, 13974-84). […]

[3] = target: T1, cognate pT peptide (Rad9-pT) (Saccharomyces cerevisiae, UniProt P14737); experiment: FTS assay, Tm shift in the presence of the cognate pT peptide; assay type: binding, yeast
T1 construct: host or cells: chemical synthesis
Experimental: as §1, §2

[4] = target: T2, pT peptide (Rad 9-pT: SLEVpTEADATFYAKK) (Saccharomyces cerevisiae, UniProt P14737); experiment: Isothermal titration calorimetry (ITC); assay type: binding, yeast; settings: in solution by ITC; FHA1 domain 35 μM in cell
T2 construct: host or cells: chemical synthesis
Experimental: A fixed amount (10 μL) of the pT peptide (Rad 9-pT: SLEVpTEADATFYAKK (SEQ ID NO:9); 500 μM) was injected from the syringe into the sample cell containing the FHA1 domain (35 μM). […] Each measurement was repeated three times.
The affinity of the G2 variant and the WT FHA1 domain to the pT peptide (SLEVpTEADATFYAKK) (SEQ ID NO:9) was determined by ITC (FIG. 12). The sample cell contained the purified FHA1 domains (35 μM) and the injection syringe was filled with the pT peptide (350 μM). […] The FHA1 domains bound to the pT peptide with a stoichiometry of 1:1, and the ITC graph was fitted by the single site binding model.

Rad9-pT peptide [5] = target: T3, Rad9-pT peptide (Saccharomyces cerevisiae, UniProt P14737); experiment: Phage ELISA of phage-displayed FHA1 domains; assay type: binding, yeast; settings: M13 protein III fusion, DsbA signal sequence
T3 construct: host or cells: chemical synthesis
Experimental: To amplify the phage particles displaying the recombinant FHA1 variants, TG1 bacterial cells (5 mL; Stratagene) harboring the phagemid DNA were infected at mid-log (OD600nm=0.5-0.6) with M13K07 helper phage (New England Biolabs) at a multiplicity of infection (MOI) of 20 for 1 h at 37° C. at 150 rpm. Infected cells were centrifuged, and the pellet was resuspended in fresh Luria Bertani medium (LB: 10 g Tryptone, 5 g Yeast extract, and 10 g NaCl per liter) supplemented with 50 μg/mL carbenicillin and 50 μg/ml kanamycin, and phage were amplified overnight at 30° C. at 250 rpm. All of the phage ELISA steps were performed at room temperature. Biotinylated peptides (100 μL, 5 μg/mL) were immobilized on Nunc MaxiSorp flat-bottom 96 well plates (Thermo Fisher Scientific) via NeutrAvidin™ Biotin binding protein (100 μL, 10 μg/mL; Thermo Fisher Scientific) and blocked with 2% skim milk in 1×PBS (200 μL per well). After washing with Phosphate Buffered Saline (PBS: 0.14 M Sodium Chloride, 0.003 M Potassium Chloride, 0.002 M Potassium Phosphate, and 0.01 M Sodium Phosphate), the wells were incubated with the phage supernatant (100 μL of phage diluted 1:2 with PBS containing 0.1% Tween 20 (PBST)) for 1 h and washed three times with PBST. The binding phage were detected using anti-M13 antibody conjugated to horse radish peroxidase (HRP) (GE Healthcare) diluted 1:5000 with PBST. After washing away the unbound antibody, the chromogenic substrate for HRP; 2,2′-Azinobis (3-ethylbenzothiazoline-6-Sulfonic Acid) diammonium salt (Thermo Fisher Scientific), supplemented with hydrogen peroxide was added (100 μL per well), and the absorbance of the green colored complex was measured at 405 nm on POLARstar OPTIMA microtiter plate reader (BMG Labtech).

Rad9-pT peptide [6] = target: T3, Rad9-pT peptide; experiment: ELISA of GST fusions of FHA1 domains; assay type: binding, yeast; settings: expressed in bacterial cytoplasm as GST fusion
Experimental: For production of FHA1-GST fusion protein, BL21 DE3 cells (10 mL; Stratagene) harboring the expression vector was grown overnight at 30° C. using the Overnight Express™ Autoinduction System 1 (Novagen). The next day, cells were lysed using BugBuster® 10× Protein Extraction Reagent (Novagen) following the manufacturer's instructions. Cell lysate (100 μL diluted 1:5 with PBST) was incubated with the biotinylated peptides as described above and detected using anti-GST antibody conjugated to HRP (diluted 1:10,000 with PBST; GE Healthcare).

[7] = 250 μM pT peptide, protein 1 μM
[8] = 250 μM pT peptide, protein 4 μM

B1: G2: thermally stable FHA1 variant of D2, mutations T15A, L48F, N121Y (protein)
chain: MENITQPTQQSTQAAQRFLIEKFSQEQIGENIVFRVISTTGQIPIRDFSADISQVLKEKRSIKKVWTFGRNPACDYHLGNISRLSNKHFQILLGEDGNLLLNDISTNGTWLNGQKVEKNSYQLLSQGDEITVGVGVESDILSLVIFINDKFKQSLEQNKVDRIRSNLKNTHHHHHH
For B1, the “thermal stability compared with the starting D2 domain” value [1] was “more thermally stable”, the “Tm (° C.)” value ([1]; protein concentration 1 μM) was 73.75 °C and the “Tm (° C.)” value ([1]; protein concentration 4 μM) was 74.9 °C. The “shift in the Tm” value [2] was “No shift”, the “Tm shift (° C.) in the presence of pT peptide” value (from here on “Tm shift (° C.) in the presence”) ([3]; 50 μM pT peptide, protein 1 μM) was 1.2 °C and the “Tm shift (° C.) in the presence” value ([3]; 50 μM pT peptide, protein 4 μM) was 0.5 °C. For the same molecule, the “Tm shift (° C.) in the presence” value [3, 7] was 2.75 °C, the “Tm shift (° C.) in the presence” value [3, 8] was 2.5 °C and the Kd [4] was ~890 nM and 890 nM.

B2: 3C-3S: FHA1 domain variant with three cysteines mutated to serine (C34S, C38S, C154S) (protein)
chain: MENITQPTQQSTQATQRFLIEKFSQEQIGENIVSRVISTTGQIPIRDLSADISQVLKEKRSIKKVWTFGRNPACDYHLGNISRLSNKHFQILLGEDGNLLLNDISTNGTWLNGQKVEKNSNQLLSQGDEITVGVGVESDILSLVIFINDKFKQSLEQNKVDRIRSNLKNT
modifications: left off: a dimerising Fc or GST; large carriers; small tags and cut ends
In the case of B2, the “binding to Rad9-pT peptide when phage-displayed” value (Rad9-pT peptide [5]) is reported as “did not bind; also recorded: remained non-functional” and the “binding of GST fusion to Rad9-pT peptide” value (Rad9-pT peptide [6]) is reported as “bound specifically; also recorded: showed specific binding”.

B3: 4C-4S: FHA1 variant with all four cysteines mutated to serines (protein)
chain: MENITQPTQQSTQATQRFLIEKFSQEQIGENIVSRVISTTGQIPIRDLSADISQVLKEKRSIKKVWTFGRNPASDYHLGNISRLSNKHFQILLGEDGNLLLNDISTNGTWLNGQKVEKNSNQLLSQGDEITVGVGVESDILSLVIFINDKFKQSLEQNKVDRIRSNLKNT
modifications: left off: a dimerising Fc or GST; large carriers; small tags and cut ends
notes: FHA1 variant with all four cysteines mutated to serines
With B3 the “binding to Rad9-pT peptide when phage-displayed” value (Rad9-pT peptide [5]) was “did not bind; also recorded: remained non-functional” and the “binding of GST fusion to Rad9-pT peptide” value (Rad9-pT peptide [6]) was “bound specifically; also recorded: showed specific binding”.

B4: A12: thermally stable FHA1 variant of D2, mutations C74S, G94D, E129V, N158I (protein)
chain: MENITQPTQQSTQATQRFLIEKFSQEQIGENIVFRVISTTGQIPIRDLSADISQVLKEKRSIKKVWTFGRNPASDYHLGNISRLSNKHFQILLDEDGNLLLNDISTNGTWLNGQKVEKNSNQLLSQGDVITVGVGVESDILSLVIFINDKFKQSLEQIKVDRIRSNLKNTHHHHHH
With B4 the “thermal stability compared with the starting D2 domain” value [1] was “more thermally stable”, the “Tm (° C.)” value ([1]; protein concentration 1 μM) was 66 °C and the “Tm (° C.)” value ([1]; protein concentration 4 μM) was 64 °C. For the same molecule, the “Tm shift (° C.) in the presence” value ([3]; 50 μM pT peptide, protein 1 μM) was 1.25 °C, the “Tm shift (° C.) in the presence” value ([3]; 50 μM pT peptide, protein 4 μM) was 1 °C and the “Tm shift (° C.) in the presence” value [3, 7] was 2 °C. For the same molecule, the “Tm shift (° C.) in the presence” value [3, 8] was 2.4 °C.
